“And” between values parts separate entries of the source, which are not always exact repeats. Equal values may be shown once. “Also recorded” adds a separate entry of the source.
What was measured:
[1] = biological target: T1, Rad9-pT peptide (Saccharomyces cerevisiae, UniProt P14737); assay: ELISA of GST fusions of FHA1 domains; type: binding, yeast; settings: expressed in bacterial cytoplasm as GST fusion
T1 construct: host or cells: chemical synthesis
Method: For production of FHA1-GST fusion protein, BL21 DE3 cells (10 mL; Stratagene) harboring the expression vector was grown overnight at 30° C. using the Overnight Express™ Autoinduction System 1 (Novagen). The next day, cells were lysed using BugBuster® 10× Protein Extraction Reagent (Novagen) following the manufacturer's instructions. Cell lysate (100 μL diluted 1:5 with PBST) was incubated with the biotinylated peptides as described above and detected using anti-GST antibody conjugated to HRP (diluted 1:10,000 with PBST; GE Healthcare).

[2] = biological target: T1, Rad9-pT peptide; assay: Phage ELISA of phage-displayed FHA1 domains; type: binding, yeast; settings: M13 protein III fusion, DsbA signal sequence
Method: To amplify the phage particles displaying the recombinant FHA1 variants, TG1 bacterial cells (5 mL; Stratagene) harboring the phagemid DNA were infected at mid-log (OD600nm=0.5-0.6) with M13K07 helper phage (New England Biolabs) at a multiplicity of infection (MOI) of 20 for 1 h at 37° C. at 150 rpm. Infected cells were centrifuged, and the pellet was resuspended in fresh Luria Bertani medium (LB: 10 g Tryptone, 5 g Yeast extract, and 10 g NaCl per liter) supplemented with 50 μg/mL carbenicillin and 50 μg/ml kanamycin, and phage were amplified overnight at 30° C. at 250 rpm. All of the phage ELISA steps were performed at room temperature. Biotinylated peptides (100 μL, 5 μg/mL) were immobilized on Nunc MaxiSorp flat-bottom 96 well plates (Thermo Fisher Scientific) via NeutrAvidin™ Biotin binding protein (100 μL, 10 μg/mL; Thermo Fisher Scientific) and blocked with 2% skim milk in 1×PBS (200 μL per well). After washing with Phosphate Buffered Saline (PBS: 0.14 M Sodium Chloride, 0.003 M Potassium Chloride, 0.002 M Potassium Phosphate, and 0.01 M Sodium Phosphate), the wells were incubated with the phage supernatant (100 μL of phage diluted 1:2 with PBS containing 0.1% Tween 20 (PBST)) for 1 h and washed three times with PBST. The binding phage were detected using anti-M13 antibody conjugated to horse radish peroxidase (HRP) (GE Healthcare) diluted 1:5000 with PBST. After washing away the unbound antibody, the chromogenic substrate for HRP; 2,2′-Azinobis (3-ethylbenzothiazoline-6-Sulfonic Acid) diammonium salt (Thermo Fisher Scientific), supplemented with hydrogen peroxide was added (100 μL per well), and the absorbance of the green colored complex was measured at 405 nm on POLARstar OPTIMA microtiter plate reader (BMG Labtech).

[3] = biological target: T2, cognate pT peptide (Rad9-pT) (Saccharomyces cerevisiae, UniProt P14737); assay: FTS assay, Tm shift in the presence of the cognate pT peptide; type: binding, yeast
T2 construct: host or cells: chemical synthesis
Method: (§1) The FTS assay was performed on a MxPro-Mx3005P instrument (Stratagene) following the protocol described by Giuliani et al (Giuliani et al. (2008) Biochemistry 47, 13974-84). It is a real-time assay using the SYBR® Green experiment setting with dissociation curve. The default FRROX filter set was used with an excitation wavelength of 492 nm and emission wavelength of 610 nm. FHA1 domains diluted with PBS to 2× final concentration (i.e. 2 μM and 8 μM) were mixed with 10×SYPRO® Orange protein gel stain (Invitrogen; 5000× concentration in DMSO) to give a final dye concentration of 10×. Then, to the protein wells only, 10 μL of the dye+protein mixture was added along with 10 μL of 1×PBS buffer. In other wells, 10 μL of either the pT peptide or its non-phosphorylated form (diluted to 2× final concentration with PBS, i.e. 100 μM and 500 μM) was added to 10 μL of dye+protein mixture. The final reaction volume was 20 μL with final concentrations of 1 μM or 4 μM of FHA1 domains, 50 μM or 250 μM of pT and non-phosphorylated peptides and 5× final concentration of the SYPRO® Orange. The assay was performed in duplicate in 96 well white PCR plates (BIO-Rad) covered with optically clear Microseal® ‘B’ Film (Bio-Rad) and heated from 25° C. to 95° C. and the melting curve was obtained with fluorescence (R) values plotted on the Y-axis and increasing temperature (° C.) on the X-axis. The mid-point of the curve gives the melting temperature (Tm), which shifts to a higher temperature in the presence of the pT peptide.
(§2) The Tm values of FHA1 variants were determined by FTS assay (Giuliani et al. (2008) Biochemistry 47, 13974-84). A representative Tm curve for the G2 variant at 1 μM concentration is shown (solid squares), alone and in the presence of the pT peptide (FIG. 11). […] The Tm values of the thermally stable variants (along with WT and D2 variant) at 1 μM and 4 μM concentration, along with the Tm shift in the presence of two different concentrations (50 μM and 250 μM) of the pT peptide, are listed in Table S3.

[4] = biological target: T3, pT peptide (Rad 9-pT: SLEVpTEADATFYAKK) (Saccharomyces cerevisiae, UniProt P14737); assay: Isothermal titration calorimetry (ITC); type: binding, yeast; settings: in solution by ITC; FHA1 domain 35 μM in cell
T3 construct: host or cells: chemical synthesis
Method: A fixed amount (10 μL) of the pT peptide (Rad 9-pT: SLEVpTEADATFYAKK (SEQ ID NO:9); 500 μM) was injected from the syringe into the sample cell containing the FHA1 domain (35 μM). […] Each measurement was repeated three times.
The affinity of the G2 variant and the WT FHA1 domain to the pT peptide (SLEVpTEADATFYAKK) (SEQ ID NO:9) was determined by ITC (FIG. 12). The sample cell contained the purified FHA1 domains (35 μM) and the injection syringe was filled with the pT peptide (350 μM). […] The FHA1 domains bound to the pT peptide with a stoichiometry of 1:1, and the ITC graph was fitted by the single site binding model.

[5] = Fluorescence-based thermal shift (FTS) assay, melting temperature; type: physicochemical; settings: for thermal stability compared with the starting D2 domain: isolated after selection with library heated to 50° C.; for Tm (° C.): mid-point of melting curve
Method: as §1
To evaluate the thermal stability of the D2 variant, phage particles displaying the D2 variant were heated at various temperatures (30° C., 37° C., 50° C., 60° C., 70° C., 80° C., and 95° C.) prior to incubation with the cognate pT peptide (Rad9-pT) and the non-phosphorylated form of the same peptide (Rad9-T). […] (FIG. 8). The D2 variant (purified six-his tagged protein) was mixed with SYPRO orange dye with or without the Rad9-pT-containing peptide and heated from 25° C. to 95° C. in a real-time PCR experiment known as the Fluorescence-based thermal shift (FTS) assay^36. In this assay, initially, the fluorescence of SYPRO orange dye is quenched in the aqueous environment of a folded protein, but as the protein starts to unfold upon heating, the dye interacts with the hydrophobic core of the protein and its fluorescence increases. Therefore, an increase in fluorescence of the dye is directly proportional to protein unfolding, until a temperature (referred to as Tm here) is reached at which the dye fluorescence decreases due to aggregation and precipitation of the protein. The melting temperature (Tm) of the D2 variant was determined by fluorescence-based thermal shift (FTS) assay to be approximately 5° C. lower than the Tm of the WT FHA1 domain. To improve the thermal stability of the D2 variant, affinity selection was carried out by heating the phage library displaying D2 variants at 50° C. prior to incubation with the pT peptide ligand to favor the isolation of variants that remained folded and functional above 50° C.
as §2
The Tm (temperature at which 50% of the protein is unfolded) of the protein domain variants was determined by a fluorescence-based thermal shift assay (Giuliani et al. (2008) Biochemistry 47, 13974-84). The proteins were mixed with SYPRO orange dye, and heated from 25° C. to 95° C. on a real-time thermocycler. […]

[6] = system: non-phosphorylated form of the same peptide; assay: FTS assay, Tm shift in the presence of the non-phosphorylated peptide; type: binding, yeast
Method: as §1, with “The final reaction volume was 20 μL with final concentrations of 1 μM or 4 μM of FHA1 domains, 50 μM or 250 μM of pT and non-phosphorylated peptides and 5× final concentration of the SYPRO® Orange.” left out, “The mid-point of the curve gives the melting temperature (Tm), which shifts to a higher temperature in the presence of the pT peptide.” left out
The Tm values of FHA1 variants were determined by FTS assay (Giuliani et al. (2008) Biochemistry 47, 13974-84). […]

[7] = 250 μM pT peptide, protein 1 μM
[8] = 250 μM pT peptide, protein 4 μM

Row | Molecule | binding of GST fusion to Rad9-pT peptide [1] | binding to Rad9-pT peptide when phage-displayed [2] | Tm shift (° C.) in the presence of pT peptide ([3]; 50 μM pT peptide, protein 1 μM) [°C] | Tm shift (° C.) in the presence of pT peptide ([3]; 50 μM pT peptide, protein 4 μM) [°C] | Tm shift (° C.) in the presence of pT peptide [3, 7] [°C] | Tm shift (° C.) in the presence of pT peptide [3, 8] [°C] | Kd [4] | thermal stability compared with the starting D2 domain [5] | Tm (° C.) ([5]; protein concentration 1 μM) [°C] | Tm (° C.) ([5]; protein concentration 4 μM) [°C] | shift in the Tm [6]
1 | 3C-3S: FHA1 domain variant with three cysteines mutated to serine (C34S, C38S, C154S) (protein, left off: a dimerising Fc or GST; large carriers; small tags and cut ends) MENITQPTQQSTQATQRFLIEKFSQEQIGENIVSRVISTTGQIPIRDLSADISQVLKEKRSIKKVWTFGRNPACDYHLGNISRLSNKHFQILLGEDGNLLLNDISTNGTWLNGQKVEKNSNQLLSQGDEITVGVGVESDILSLVIFINDKFKQSLEQNKVDRIRSNLKNT | bound specifically; also recorded: showed specific binding | did not bind; also recorded: remained non-functional | – | – | – | – | – | – | – | – | –
2 | 4C-4S: FHA1 variant with all four cysteines mutated to serines (protein, left off: a dimerising Fc or GST; large carriers; small tags and cut ends, FHA1 variant with all four cysteines mutated to serines) MENITQPTQQSTQATQRFLIEKFSQEQIGENIVSRVISTTGQIPIRDLSADISQVLKEKRSIKKVWTFGRNPASDYHLGNISRLSNKHFQILLGEDGNLLLNDISTNGTWLNGQKVEKNSNQLLSQGDEITVGVGVESDILSLVIFINDKFKQSLEQNKVDRIRSNLKNT | bound specifically; also recorded: showed specific binding | did not bind; also recorded: remained non-functional | – | – | – | – | – | – | – | – | –
3 | G2: thermally stable FHA1 variant of D2, mutations T15A, L48F, N121Y (protein) MENITQPTQQSTQAAQRFLIEKFSQEQIGENIVFRVISTTGQIPIRDFSADISQVLKEKRSIKKVWTFGRNPACDYHLGNISRLSNKHFQILLGEDGNLLLNDISTNGTWLNGQKVEKNSYQLLSQGDEITVGVGVESDILSLVIFINDKFKQSLEQNKVDRIRSNLKNTHHHHHH | – | – | 1.2 | 0.5 | 2.75 | 2.5 | ~890 nM and 890 nM | more thermally stable | 73.75 | 74.9 | No shift
4 | A12: thermally stable FHA1 variant of D2, mutations C74S, G94D, E129V, N158I (protein) MENITQPTQQSTQATQRFLIEKFSQEQIGENIVFRVISTTGQIPIRDLSADISQVLKEKRSIKKVWTFGRNPASDYHLGNISRLSNKHFQILLDEDGNLLLNDISTNGTWLNGQKVEKNSNQLLSQGDVITVGVGVESDILSLVIFINDKFKQSLEQIKVDRIRSNLKNTHHHHHH | – | – | 1.25 | 1 | 2 | 2.4 | – | more thermally stable | 66 | 64 | –

From patent US9097721B2, “Compositions comprising engineered phosphothreonine affinity reagents, methods of making, and methods of use” (The Board of Trustees of the University of Illinois, priority 2012, dated 2015)
